The results in this text go back to PMC8610599.

What all share (test): BLI
In one assay the target is PGDM1400. As to conditions: parent: est. 0.40; read off a plot.
In another assay the target is PGT121. Conditions: parent: est. 0.20; read off a plot.
For the next assay, the target named is PGT151. Conditions: parent: est. 1.6; read off a plot.
The target of another assay is VRC01. As to conditions: parent: est. 0.38; read off a plot.

On to LAI SOSIP.664 trimer F53V; Q567R, for which the response (AUC (2G12 normalized)) was 0.35 with PGDM1400, 0.22 in the assay with PGT121, 1.5 with PGT151 and 0.4 with VRC01.
For the substance LAI SOSIP.664 trimer S164G, the response (AUC (2G12 normalized)) in the assay with PGDM1400 amounted to 0.25; with PGT121, 0.22; with PGT151 it was 1.5; with VRC01 it was 0.47.
For LAI SOSIP.664 trimer Q567R, the response (AUC (2G12 normalized)) with PGDM1400 was 0.3; in the assay with PGT121, 0.22; in the assay with PGT151, 1.6; with VRC01 it was 0.42.
Consider LAI SOSIP.664 trimer Y586W; Q567R, for which the response (AUC (2G12 normalized)) stood at 0.3 with PGDM1400, 0.2 with PGT121, 1.5 with PGT151 and 0.55 in the assay with VRC01.
For LAI SOSIP.664 trimer F53V, the response (AUC (2G12 normalized)) amounted to 0.33 with PGDM1400, 0.18 with PGT121, 1.5 in the assay with PGT151 and 0.45 with VRC01.
For the substance LAI SOSIP.664 trimer R585F; Q567R, the response (AUC (2G12 normalized)) with PGDM1400 worked out at 0.35; in the assay with PGT121, 0.17; with PGT151, 1.5; in the assay with VRC01, 0.4.
With LAI SOSIP.664 trimer Y586W, the response (AUC (2G12 normalized)) worked out at 0.42 with PGDM1400, 0.18 with PGT121, 1.3 with PGT151 and 0.88 with VRC01.
For the substance LAI SOSIP.664 trimer Q590A; S164G, the response (AUC (2G12 normalized)) with PGDM1400 is 0.2; in the assay with PGT121, 0.17; in the assay with PGT151, 1.4; with VRC01, 0.7.
For LAI SOSIP.664 trimer R585F, in that order: 0.35, 0.15, 1.5 and 0.4.
For LAI SOSIP.664 trimer Q590A, in that order: 0.35, 0.18, 1.5 and 0.62.
